The source of these data is patent publication US20220033481A1 (NANJING LEGEND BIOTECH, published 2022).

In experiment [1] the target is T1, human transferrin (human, UniProt P02787 20-698). The experiment in a line: SPR, BIAcore T200, sdAb amine-coupled to CM5 chip, transferrin injected. The procedure:
(§1) Experiments were performed using a BIAcore T200 optical sensor platform and research grade CM5 sensor chips (GE Healthcare). AS01274 sdAb and AS01299 sdAb were immobilized on the sensor chip surface by standard amine coupling. All experiments were carried out in HEPES buffer [10 mM HEPES (pH 7.4), 150 mM NaCl, 3.4 mM EDTA, 0.005% Tween 20] at 25° C. Human Transferrin and Cynomolgus monkey Transferrin were injected at serial dilutions ranging from 3.9 nM to 2000 nM at a flow rate of 30 μl/min unless otherwise indicated. The amount of bound analyte after subtraction from the blank control surface is shown as relative response units (RU). The double referenced sensorgrams from each injection series were analyzed for binding kinetics using BIA evaluation software (GE Healthcare). Dissociation constants (KDs) were calculated from the on- and off-rates (kₒₙ and koff, respectively), as determined by global fitting of the experimental data to a 1:1 Langmuir binding model (Chi²<1).
Background: SPR reads the build-up and loss of mass on a sensor chip optically.

The target of experiment [2] is T2, cynomolgus monkey transferrin (cynomolgus monkey, UniProt A0A2K5UXZ0 20-695).
T2 construct: also called cynomolgus transferrin
The experiment is described as above. As for the experimental part:
as §1

In experiment [3] the target is T2, cynomolgus monkey transferrin. The experiment in a line: SPR, BIAcore T200, cynomolgus monkey transferrin as ligand, sdAb as analyte.
In experiment [4] the target is T1, human transferrin. The experiment in a line: SPR, BIAcore T200, human transferrin amine-coupled to CM5 chip, sdAb injected. As for the experimental part:
as §1, with “Healthcare; Little Chalfont, United Kingdom). Human transferrin was” for “Healthcare). AS01274 sdAb and AS01299 sdAb were”, “Human Transferrin and Cynomolgus monkey Transferrin were injected at serial dilutions ranging from 3.9 nM to 2000 nM at a flow rate of 30 μl/min unless otherwise indicated.” left out

Broadly, the Kd is the free concentration of one partner at which half of the binding sites on the other are occupied at equilibrium, for simple one-to-one binding. As a reminder, the koff is the rate constant with which the complex falls apart. Broadly, the kon is the rate constant with which the complex forms.

T1 sequence (P02787 20-698 limits assumed): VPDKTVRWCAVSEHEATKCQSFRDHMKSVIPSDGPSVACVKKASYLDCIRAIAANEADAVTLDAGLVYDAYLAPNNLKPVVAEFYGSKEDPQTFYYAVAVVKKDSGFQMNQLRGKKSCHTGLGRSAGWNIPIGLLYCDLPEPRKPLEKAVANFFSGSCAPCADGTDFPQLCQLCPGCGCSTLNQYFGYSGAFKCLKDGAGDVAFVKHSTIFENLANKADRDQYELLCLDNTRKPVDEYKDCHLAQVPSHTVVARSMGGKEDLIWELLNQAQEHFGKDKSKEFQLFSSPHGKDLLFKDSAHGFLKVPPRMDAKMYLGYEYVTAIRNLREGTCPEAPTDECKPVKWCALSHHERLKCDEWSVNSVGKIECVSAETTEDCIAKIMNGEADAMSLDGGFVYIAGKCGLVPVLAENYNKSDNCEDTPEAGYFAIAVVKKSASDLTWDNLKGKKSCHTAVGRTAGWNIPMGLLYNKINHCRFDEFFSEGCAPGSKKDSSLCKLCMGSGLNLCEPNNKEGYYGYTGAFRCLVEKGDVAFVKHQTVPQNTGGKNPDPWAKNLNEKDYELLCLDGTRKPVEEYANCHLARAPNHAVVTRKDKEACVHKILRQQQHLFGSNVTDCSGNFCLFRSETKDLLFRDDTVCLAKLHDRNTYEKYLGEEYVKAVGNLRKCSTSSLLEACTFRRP

B1: AS01299 sdAb (VHH)
VHH: QVQLVESGGGLVQPGGSLRLSCAASGSIFSIATMAWYRQAPGKQRELVAGITRSGSTNYRDSVKGRFTISRDNAKNTMYLQMNSLKPEDTAVYYCTDYSSRYYHDYWGQGTQVTVSS
notes: Llama sdAb made in E. coli with a C-terminal 6xHis tag; also called sdAb AS01299
For B1, the Kd with human transferrin [1] was 140 nM; in experiment [2], 8.8 nM; in experiment [3], 0.065 nM; with human transferrin [4], 0.98 nM. Moreover, the koff with human transferrin [1] stood at 0.0031 s⁻¹; in experiment [2], 0.00046 s⁻¹; in experiment [3], 0.00056 s⁻¹; with human transferrin [4], 0.0022 s⁻¹. In addition, the kon turned out to be 22000 M⁻¹ s⁻¹ in the experiment with human transferrin [1], 52000 M⁻¹ s⁻¹ in experiment [2], 8.6e+06 M⁻¹ s⁻¹ in experiment [3] and 2.2e+06 M⁻¹ s⁻¹ in the experiment with human transferrin [4].

B2: AS01299VH3a-L47 (VHH)
VHH: EVQLVESGGGLVQPGGSLRLSCAASGSIFSIATMAWYRQAPGKGLEWVAGITRSGSTNYRDSVKGRFTISRDNSKNTMYLQMNSLRAEDTAVYYCTDYSSRYYHDYWGQGTLVTVSS
notes: Humanized variant of AS01299, C-terminal 6xHis tag; also called AS01299VH3a-L47-2
On to B2, for which, in experiment [3], binding was characterised by a dissociation constant (Kd) of 0.053 nM, the off-rate constant (koff) worked out at 0.00048 s⁻¹ and the association rate constant (kon) was 8.9e+06 M⁻¹ s⁻¹. In the experiment with human transferrin [4], this molecule gave a dissociation constant (Kd) of 3.7 nM, a koff of 0.0025 s⁻¹ and an on-rate (kon) of 680000 M⁻¹ s⁻¹.

B3: AS01299VH4 (VHH)
VHH: EVQLVESGGGLVQPGGSLRLSCAASGSIFSIATMAWYRQAPGKGLELVSGITRSGSTNYRDSVKGRFTISRDNSKNTLYLQMNSLRAEDTAVYYCTDYSSRYYHDYWGQGTLVTVSS
notes: Humanized variant of AS01299, C-terminal 6xHis tag
With B3, in experiment [3], binding was put at a Kd of 0.054 nM, the off-rate (koff) stood at 0.0003 s⁻¹ and the association rate constant (kon) is 5.7e+06 M⁻¹ s⁻¹. Also, in the experiment with human transferrin [4], the dissociation constant (Kd) came out at 1.1 nM, the off-rate (koff) was determined as 0.0011 s⁻¹ and the kon came to 1e+06 M⁻¹ s⁻¹.

B4: AS01299VH3a (VHH)
VHH: EVQLVESGGGLVQPGGSLRLSCAASGSIFSIATMAWYRQAPGKGLELVAGITRSGSTNYRDSVKGRFTISRDNSKNTMYLQMNSLRAEDTAVYYCTDYSSRYYHDYWGQGTLVTVSS
notes: as for B3
In experiment [3], B4 came in with a Kd of 0.057 nM, an off-rate (koff) of 0.00028 s⁻¹ and a kon of 4.9e+06 M⁻¹ s⁻¹. In the experiment with human transferrin [4], this molecule showed a dissociation constant (Kd) of 1.3 nM, a koff of 0.0011 s⁻¹ and a kon of 810000 M⁻¹ s⁻¹.

B5: AS01299VH3a-A49 (VHH)
VHH: EVQLVESGGGLVQPGGSLRLSCAASGSIFSIATMAWYRQAPGKGLELVSGITRSGSTNYRDSVKGRFTISRDNSKNTMYLQMNSLRAEDTAVYYCTDYSSRYYHDYWGQGTLVTVSS
notes: as for B3
In the case of B5, in experiment [3], binding was put at a Kd of 0.1 nM, the koff came to 0.00027 s⁻¹ and the association rate constant (kon) turned out to be 2.6e+06 M⁻¹ s⁻¹. In the experiment with human transferrin [4], this molecule showed a Kd of 2.4 nM, an off-rate constant (koff) of 0.001 s⁻¹ and a kon of 420000 M⁻¹ s⁻¹.

B6: AS01274 sdAb (VHH)
VHH: QVQLVESGGGLVQPGGSLRLSCVASGSIASIATMAWYRQAPGQQRELVAGITRGGSTKYADSVKGRFTISRDNAKNTLYLQMNSLKPDDTAVYYCTDYSRKYYQDYWGQGTQVTVSS
notes: Llama sdAb made in E. coli with a C-terminal 6xHis tag; also called sdAb AS01274
Consider B6, for which the dissociation constant Kd in the experiment with human transferrin [1] is 16 nM; in experiment [2], 1.6 nM; in experiment [3] it was 0.0067 nM; with human transferrin [4], 0.09 nM. The off-rate constant (koff) in the experiment with human transferrin [1] is 0.00019 s⁻¹; in experiment [2], 4.4e-05 s⁻¹; in experiment [3], 8.9e-05 s⁻¹; in the experiment with human transferrin [4], 0.0003 s⁻¹. The kon was determined as 12000 M⁻¹ s⁻¹ in the experiment with human transferrin [1], 27000 M⁻¹ s⁻¹ in experiment [2], 1.3e+07 M⁻¹ s⁻¹ in experiment [3] and 3.3e+06 M⁻¹ s⁻¹ with human transferrin [4].

B7: AS01299VH4-L47 (VHH)
VHH: EVQLVESGGGLVQPGGSLRLSCAASGSIFSIATMAWYRQAPGKGLEWVSGITRSGSTNYRDSVKGRFTISRDNSKNTLYLQMNSLRAEDTAVYYCTDYSSRYYHDYWGQGTLVTVSS
notes: Humanized variant of AS01299, C-terminal 6xHis tag; also called AS01299VH4-L47-2
For the molecule B7, in experiment [3], the equilibrium dissociation constant (Kd) stood at 0.071 nM, the off-rate constant (koff) is 0.00066 s⁻¹ and the kon amounted to 9.3e+06 M⁻¹ s⁻¹. In the experiment with human transferrin [4], this molecule yielded a dissociation constant (Kd) of 6 nM, a dissociation rate constant (koff) of 0.0035 s⁻¹ and an on-rate constant (kon) of 590000 M⁻¹ s⁻¹.

B8: AS01299VH3a-M78 (VHH)
VHH: EVQLVESGGGLVQPGGSLRLSCAASGSIFSIATMAWYRQAPGKGLELVAGITRSGSTNYRDSVKGRFTISRDNSKNTLYLQMNSLRAEDTAVYYCTDYSSRYYHDYWGQGTLVTVSS
notes: as for B3
On to B8, for which, in experiment [3], the Kd stood at 0.058 nM, the koff worked out at 0.0003 s⁻¹ and the kon was 5.2e+06 M⁻¹ s⁻¹. In the experiment with human transferrin [4], the affinity, expressed as Kd, was 1.1 nM; the dissociation rate constant (koff) stood at 0.0012 s⁻¹; the kon was 1e+06 M⁻¹ s⁻¹.

B9: AS01274VHa (VHH)
VHH: EVQLVESGGGLVQPGGSLRLSCAASGSIASIATMAWYRQAPGKGLELVAGITRGGSTKYADSVKGRFTISRDNSKNTLYLQMNSLRAEDTAVYYCTDYSRKYYQDYWGQGTLVTVSS
notes: Humanized variant of AS01274, C-terminal 6xHis tag
For the molecule B9, in experiment [3], the Kd was 0.011 nM, the off-rate constant (koff) came out at 8.1e-05 s⁻¹ and the kon came out at 7.3e+06 M⁻¹ s⁻¹. Further, in the experiment with human transferrin [4], the Kd stood at 0.13 nM, the koff was 0.0002 s⁻¹ and the kon stood at 1.5e+06 M⁻¹ s⁻¹.

B10: AS01274VHa-A49 (VHH)
VHH: EVQLVESGGGLVQPGGSLRLSCAASGSIASIATMAWYRQAPGKGLELVSGITRGGSTKYADSVKGRFTISRDNSKNTLYLQMNSLRAEDTAVYYCTDYSRKYYQDYWGQGTLVTVSS
notes: as for B9
B10: in experiment [3], the Kd worked out at 0.009 nM, the koff turned out to be 7.9e-05 s⁻¹ and the kon is 8.7e+06 M⁻¹ s⁻¹. In the experiment with human transferrin [4], this molecule had a Kd of 0.11 nM, an off-rate constant (koff) of 0.00016 s⁻¹ and an on-rate (kon) of 1.5e+06 M⁻¹ s⁻¹.
